Paper PMC3517540, “Versatile Membrane Deformation Potential of Activated Pacsin” (PLoS ONE, 2012)
Each block holds one binder with its values, some of them ahead of it.

Columns and labels:
[1] = biological target: T1, Human full-length pacsin-1 (human, UniProt Q9BY11 1-444); test: pull-down; GST-PRD baits on GST SpinTrap resin, purified pacsin-1 prey 2 h at 4°C; 25 mM Tris-Cl pH 7.5, 100 mM NaCl; eluted with 10 mM glutathione; SDS-PAGE and Coomassie staining; details: both partners purified
T1 construct: pacsin-1 (syndapin-1), human, full length; The His6-SUMO moiety was cleavable with Ulp-1; also called pacsin isoform 1; syndapin; source: modified pET28a expression plasmid, purified as described previously [27], [35]

[2] = biological target: T1, Human full-length pacsin-1; test: SEC; pacsin-1 (40 µM) and GST-PRD (80 µM) incubated for 15 min, then size-exclusion chromatography; fractions analysed by SDS-PAGE and Coomassie staining; details: both partners purified

T1 sequence (Q9BY11 whole entry, canonical isoform): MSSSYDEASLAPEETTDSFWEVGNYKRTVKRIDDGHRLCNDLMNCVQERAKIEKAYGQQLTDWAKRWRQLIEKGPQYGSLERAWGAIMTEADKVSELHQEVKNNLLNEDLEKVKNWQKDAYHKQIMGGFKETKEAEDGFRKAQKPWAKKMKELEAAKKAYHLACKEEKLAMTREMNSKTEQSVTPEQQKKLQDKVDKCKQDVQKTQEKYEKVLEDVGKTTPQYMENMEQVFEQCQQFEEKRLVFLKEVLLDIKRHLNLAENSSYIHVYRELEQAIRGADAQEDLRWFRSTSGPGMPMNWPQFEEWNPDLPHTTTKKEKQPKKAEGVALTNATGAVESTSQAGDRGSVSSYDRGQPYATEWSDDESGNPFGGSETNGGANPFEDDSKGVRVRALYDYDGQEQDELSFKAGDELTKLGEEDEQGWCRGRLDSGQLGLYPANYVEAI

binding result [1]: binds
B1: GST-PRD^trunc1 (mouse dynamin-1 PRD aa747-810 fused to GST) (domain or fragment, UniProt P39053 747-810, looked up)
chain: TTTVSTPMPPPVDDSWLQVQSVPAGRRSPTSSPTPQRRAPAVPPARPGSRGPAPGPPPAGSALG
notes: dynamin-1 PRD, mouse, aa747-810; also called tr1; source: purified as GST fusion protein (GSTrap, Superdex 200 SEC)

binding result [2]: binds
B2: Mouse dynamin-1 proline-rich domain (residues 747-842) fused to GST (domain or fragment, UniProt P39053 747-842, looked up)
chain: TTTVSTPMPPPVDDSWLQVQSVPAGRRSPTSSPTPQRRAPAVPPARPGSRGPAPGPPPAGSALGGAPPVPSRPGASPDPFGPPPQVPSRPNRAPPG
notes: dynamin-1 proline-rich domain (PRD), mouse, residues 747-842; 100% identical to the human dynamin-1 PRD; Construct from the De Camilli laboratory; also called GST-PRD; PRD^wt; source: expression vector pGEX-6P-1, purified (GSTrap, Superdex 200 SEC)
